B1: F(ab')2 -Au11: F(ab')2 -Au11 conjugate of 17-1A mouse monoclonal antibody specific for human colorectal tumors (conjugate, chains of the INN, looked up)
VH: QVQLQQSGAELVRPGTSVKVSCKASGYAFTNYLIEWVKQRPGQGLEWIGVINPGSGGTNYNEKFKGKATLTADKSSSTAYMQLSSLTSDDSAVYFCARDGPWFAYWGQGTLVTVSA
VL: NIVMTQSPKSMSMSVGERVTLTCKASENVVTYVSWYQQKPEQSPKLLIYGASNRYTGVPDRFTGSGSATDFTLTISSVQAEDLADYHCGQGYSYPYTFGGGTKLEIK
modifications: F(ab')2 undecagold cluster label
notes: F(ab')2 -Au11 conjugate of 17-1A mouse monoclonal antibody specific for human colorectal tumors
B2: undecagold cluster-labeled 17-1A monoclonal antibody: undecagold cluster-labeled 17-1A monoclonal antibody (conjugate, chains of the INN, looked up)
VH: B1 VH
VL: B1 VL
modifications: undecagold cluster label
B3: IgG-Au11: 17-1A whole IgG labeled with monomaleimidopropyl undecagold cluster, about 2 Au clusters per IgG (conjugate, chains of the INN, looked up)
VH: B1 VH
VL: B1 VL
modifications: undecagold cluster label
notes: 17-1A whole IgG labeled with monomaleimidopropyl undecagold cluster, about 2 Au clusters per IgG

Assays:
[1] = Thermal stability of gold clusters; format: physicochemical
melanoma cells (WM164) = test: In vitro cell binding of 17-1A-Au11 conjugates, control melanoma (radioactivity of gold); conditions: for % bound to control cells (melanoma): percent of applied radioactive gold bound after incubation and washing, average ± s.d. of 2 samples
Experimental: (§3) The 17-1A Fab' fragment-(radioactive gold)-undecagold cluster conjugate was incubated in vitro with tumor cells (LS180- a cell culture of human colon carcinoma) and non tumor cells (WM164 - a cell culture of melanoma as control) and the radioactivity of the gold was used to assay binding.
(§4) bound to cells after incubation and washing.
(§5) entry is an average (+ s.d.) of 2 samples.

[2] = system: human colon carcinoma cells; test: Radioimmunoassay, cell binding of gold labeled F(ab')2 to cultured human colon carcinoma cells; format: cell-based; conditions: 17-1A; in words
Experimental: (§1) Both of these methods were used to prepare F(ab')2 -Au11 conjugates using 17-1A mouse monoclonal antibody which is specific for human colorectal tumors. After preparation, this labeled antibody was tested to find if its immunoreactivity had been altered. A radioimmunoassay was performed using cell binding to cultured human colon carcinoma cells and to melanoma cells (the control).

human colon carcinoma = test: In vivo biodistribution of radiogold cluster 17-1A conjugates in nude mice bearing human tumors; conditions: 24 hr after injection; for blood, % of injected dose per gram of tissue / bone, % of injected dose per gram of tissue / gut, % of injected dose per gram of tissue / heart, % of injected dose per gram of tissue / kidneys, % of injected dose per gram of tissue / liver, % of injected dose per gram of tissue / lung, % of injected dose per gram of tissue / muscle, % of injected dose per gram of tissue / spleen, % of injected dose per gram of tissue / stomach, % of injected dose per gram of tissue / tumor, % of injected dose per gram of tissue: normalized to 25 g animals
Experimental: Nude mice bearing human colon carcinoma or melanoma tumors were injected with radioactive gold clusters conjugated to anti-tumor antibodies. Two antibodies were gold labeled, one (17-1A) against the human colon carcinoma and another non-relevant antibody, H2 4B5 anti-influenza. The non-relevant tumor (melanoma) and non-relevant gold conjugated antibody (H2 4B5) served as controls. A total of 53 mice were used. In order to assess the efficacy of using gold labeled Fab' versus whole IgG, both types of antibody were labeled and tested. In addition, two crosslinking arms between the gold cluster and antibody were used, one, as described in the preparation example, was N-methoxycarbonyl maleimide (NMCM), whereas the other was n-maleimidobenzoyl-N-hydroxysuccinimide ester (MBS), This was to test if a different covalent crosslinker between the gold cluster and antibody or antibody fragment yielded conjugates with different stabilities or body distributions in vivo.
In vivo biodistribution of radiogold cluster 17-1A conjugates. Data,
after injection is expressed in % of injected dose per gram of tissue.
Tumor to normal tissue ratios are given in parentheses. Three or four
sample were averaged; normalized to 25 g animals.

melanoma cells = test: Radioimmunoassay, cell binding of gold labeled F(ab')2 to melanoma cells (control); format: cell-based; conditions: 17-1A; in words
Experimental: as §1

[3] = system: human colon carcinoma cells (LS180); test: In vitro cell binding of 17-1A-Au11 conjugates, human colon carcinoma (radioactivity of gold); conditions: percent of applied radioactive gold bound after incubation and washing; average ± s.d. of 2 samples
Experimental: as §3, §4, §5

[4] = system: Human colon carcinoma cells (cell line LS180); test: Silver enhanced staining of human colon carcinoma cells, light microscope; format: cell-based; conditions: approximately 45 minutes developer
Experimental: Human colon carcinoma cells (cell line LS180) were grown in tissue culture media. The cells were harvested with a brief trypsin treatment and centrifuged. They were then resuspended in phosphate buffered saline with 5% IgG free horse serum.
(§2) Assuming each call has approx. 10^6 antibody binding sites, a ten fold molar excess over this of undecagold cluster-labeled 17-1A monoclonal antibody was applied. Cells were incubated at room temperature for one hour on a wrist shaker device. The cells were then centrifuged at 1100 rpm for 5 minutes and the supernatent discarded. Additional buffer was added to resuspend the cells and after 3 minutes they were centrifuged again. Three of these washes were done. As a control, melanoma cells (cell line WM 164) were also prepared in a similar fashion. Cells were concentrated onto glass microscope slides using a Cytospin device. […] UV exposure for 5 minutes prior to development enhanced this color.

[5] = system: melanoma cells (cell line WM 164); test: Silver enhanced staining of control melanoma cells, light microscope; format: cell-based; conditions: approximately 45 minutes developer
Experimental: as §2

Molecule	% bound to control cells (melanoma) (melanoma cells (WM164)) [%]	Tumor to normal tissue ratio, blood (human colon carcinoma)	Tumor to normal tissue ratio, bone (human colon carcinoma)	Tumor to normal tissue ratio, gut (human colon carcinoma)	Tumor to normal tissue ratio, heart (human colon carcinoma)	Tumor to normal tissue ratio, kidneys (human colon carcinoma)	Tumor to normal tissue ratio, liver (human colon carcinoma)	Tumor to normal tissue ratio, lung (human colon carcinoma)	Tumor to normal tissue ratio, muscle (human colon carcinoma)	Tumor to normal tissue ratio, spleen (human colon carcinoma)	Tumor to normal tissue ratio, stomach (human colon carcinoma)	blood, % of injected dose per gram of tissue (human colon carcinoma)	bone, % of injected dose per gram of tissue (human colon carcinoma)	gut, % of injected dose per gram of tissue (human colon carcinoma)	heart, % of injected dose per gram of tissue (human colon carcinoma)	kidneys, % of injected dose per gram of tissue (human colon carcinoma)	liver, % of injected dose per gram of tissue (human colon carcinoma)	lung, % of injected dose per gram of tissue (human colon carcinoma)	muscle, % of injected dose per gram of tissue (human colon carcinoma)	spleen, % of injected dose per gram of tissue (human colon carcinoma)	other results
Au55 [P(PhCONHCH3)3 ]11 P(PhCONHCH3)2 [derivatized Au55 cluster, Au55 [P(PhCONHCH3)3 ]11 P(PhCONHCH3)2 [PhCONH(CH2)3 N(CO)2 (CH)2 ]]	–	–	–	–	–	–	–	–	–	–	–	–	–	–	–	–	–	–	–	–	temperature above which the cluster deteriorates rapidly [1]: above 70 °C
B1	0.30 ± 0.03	1.5	3.5	5.3	3.4	0.1	0.8	1.8	8.6	1.3	9.1	5.6 ± 0.4 % of injected dose per gram of tissue	2.4 ± 0.2 % of injected dose per gram of tissue	1.6 ± 0.2 % of injected dose per gram of tissue	3.2 ± 0.4 % of injected dose per gram of tissue	117.0 ± 20 % of injected dose per gram of tissue	10.5 ± 0.4 % of injected dose per gram of tissue	4.6 ± 0.1 % of injected dose per gram of tissue	0.98 ± 0.08 % of injected dose per gram of tissue	6.4 ± 0.8 % of injected dose per gram of tissue	radioactive gold on the non-tumor cells (melanoma cells (WM164); WM164, text statement on Table 1, "or background for F(ab')2"): < 0.4%; binding to the tumor cells versus native unlabeled F(ab')2 [2]: virtually identical binding to the tumor cells as did native unlabeled F(ab')2; stomach, % of injected dose per gram of tissue (human colon carcinoma): 0.93 ± 0.19 % of injected dose per gram of tissue; tumor, % of injected dose per gram of tissue (human colon carcinoma): 8.4 ± 0.6 % of injected dose per gram of tissue; binding to the control cells (melanoma cells): no binding to the control cells; % bound to tumor cells (human colon carcinoma) [3]: 16.13 ± 0.02%
B2	–	–	–	–	–	–	–	–	–	–	–	–	–	–	–	–	–	–	–	–	staining of cells after silver developer [4]: became brown in color, easily identifiable in the light microscope; staining of control cells after silver developer [5]: clear and showed virtually no staining
B3	0.77 ± 0.08	2.5	3.6	7.2	3.1	0.5	1.7	2.3	10.0	0.8	11.6	3.2 ± 0.6 % of injected dose per gram of tissue	2.2 ± 0.3 % of injected dose per gram of tissue	1.1 ± 0.3 % of injected dose per gram of tissue	2.6 ± 0.4 % of injected dose per gram of tissue	17.1 ± 3.1 % of injected dose per gram of tissue	4.6 ± 0.7 % of injected dose per gram of tissue	3.4 ± 0.9 % of injected dose per gram of tissue	0.80 ± 0.23 % of injected dose per gram of tissue	9.5 ± 0.3 % of injected dose per gram of tissue	stomach, % of injected dose per gram of tissue (human colon carcinoma): 0.69 ± 0.20 % of injected dose per gram of tissue; tumor, % of injected dose per gram of tissue (human colon carcinoma): 8.0 ± 3.2 % of injected dose per gram of tissue; % bound to tumor cells (human colon carcinoma) [3]: 14.32 ± 0.92%

Reference: patent US5360895A, “Derivatized gold clusters and antibody-gold cluster conjugates” (priority 1992, dated 1994)
